Assay results: publication PMC11417181, “The SCR-17 and SCR-18 glycans in human complement factor H enhance its regulatory function” (The Journal of Biological Chemistry, 2024)
glycan = not defined here

What was measured:
[1] = biological target: the molecule itself; assay: AUC; sedimentation velocity of the SCR fragments, 20 °C, 50,000 rpm, Hepes buffer (10 mM Hepes, 137 mM NaCl, pH 7.4), c(s) analysis in SEDFIT, proportions of monomer and dimer from peak integration; monomer to dimer
[2] = biological target: the molecule itself; assay: as above; remark: listed apart in the source
complement C3b = biological target: T1, complement C3b (human, UniProt P01024 23-667; P01024 749-1663, free thiol group in C3b blocked with iodoacetamide (the paper does not say on which chain)); assay: SPR; Biacore X100, C3b amine-coupled to a CM5 chip, CFH preparations flowed at 0.05 to 7.75 μM, 25 °C, Hepes buffer with 0.005% Tween20, single-cycle, 1:1 steady-state affinity fit; settings: both partners purified
T1 construct: Amine-coupled to a CM5 chip in the SPR experiment
T1 sequence (P01024 23-667, chain 1 of 2): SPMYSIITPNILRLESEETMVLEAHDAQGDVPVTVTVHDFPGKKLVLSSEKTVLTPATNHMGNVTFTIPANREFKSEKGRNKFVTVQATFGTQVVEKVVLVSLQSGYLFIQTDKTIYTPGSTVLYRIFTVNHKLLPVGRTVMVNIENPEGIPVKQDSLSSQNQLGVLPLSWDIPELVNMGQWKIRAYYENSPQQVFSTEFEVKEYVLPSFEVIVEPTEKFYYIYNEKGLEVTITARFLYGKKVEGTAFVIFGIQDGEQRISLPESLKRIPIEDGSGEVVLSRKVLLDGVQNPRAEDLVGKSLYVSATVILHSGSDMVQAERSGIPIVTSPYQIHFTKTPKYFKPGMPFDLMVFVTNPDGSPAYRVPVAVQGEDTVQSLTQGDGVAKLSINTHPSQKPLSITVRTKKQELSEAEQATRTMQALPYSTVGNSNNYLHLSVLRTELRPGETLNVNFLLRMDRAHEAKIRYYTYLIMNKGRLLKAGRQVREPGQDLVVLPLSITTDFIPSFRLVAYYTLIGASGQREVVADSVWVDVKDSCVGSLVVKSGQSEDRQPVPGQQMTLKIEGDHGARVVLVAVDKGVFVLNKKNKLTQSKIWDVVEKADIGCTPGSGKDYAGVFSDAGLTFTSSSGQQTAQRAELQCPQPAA
T1 sequence (P01024 749-1663, chain 2 of 2): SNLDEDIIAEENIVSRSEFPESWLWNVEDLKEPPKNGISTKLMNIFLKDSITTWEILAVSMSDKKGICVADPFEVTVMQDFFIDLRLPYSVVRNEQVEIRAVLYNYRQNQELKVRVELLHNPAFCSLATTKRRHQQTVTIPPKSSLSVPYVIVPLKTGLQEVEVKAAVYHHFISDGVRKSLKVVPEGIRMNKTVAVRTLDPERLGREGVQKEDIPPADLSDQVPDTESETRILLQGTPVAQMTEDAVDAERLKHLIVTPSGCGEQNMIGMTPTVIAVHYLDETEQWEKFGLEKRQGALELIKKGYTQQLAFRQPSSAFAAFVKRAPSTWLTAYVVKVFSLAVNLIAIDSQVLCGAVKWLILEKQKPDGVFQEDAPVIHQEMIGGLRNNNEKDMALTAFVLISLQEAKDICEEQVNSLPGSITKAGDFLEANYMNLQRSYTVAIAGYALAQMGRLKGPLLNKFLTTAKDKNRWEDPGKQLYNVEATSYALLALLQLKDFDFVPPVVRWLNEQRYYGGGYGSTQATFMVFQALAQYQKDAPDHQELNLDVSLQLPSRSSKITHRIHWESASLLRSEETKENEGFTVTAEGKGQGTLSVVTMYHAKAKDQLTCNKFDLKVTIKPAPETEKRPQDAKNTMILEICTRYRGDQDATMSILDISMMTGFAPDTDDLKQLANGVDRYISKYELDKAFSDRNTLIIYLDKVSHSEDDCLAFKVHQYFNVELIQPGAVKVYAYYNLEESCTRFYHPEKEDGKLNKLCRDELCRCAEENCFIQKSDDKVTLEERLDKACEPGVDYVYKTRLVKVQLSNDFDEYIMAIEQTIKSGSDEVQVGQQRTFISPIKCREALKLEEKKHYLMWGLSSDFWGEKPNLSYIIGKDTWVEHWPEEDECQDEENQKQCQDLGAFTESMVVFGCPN

Kd (complement C3b)	Binder	proportion of dimer [1]	stoichiometry N [2]
	SCR-18H, glycosylated single-domain fragment of complement factor H expressed in Pichia pastoris (domain or fragment, reading uncertain; also: N-linked hyperglycosylation (Pichia) at Asn1077, recombinant protein) RDTSCVNPPTVQNAYIVSRQMSKYPSGERVRYQCRSPYEMFGDEEVMCLNGN(glycan)WTEPPQCKDST	57%	2
	SCR-17/18H, glycosylated two-domain fragment of complement factor H expressed in Pichia pastoris (domain or fragment, Pichia hyperglycosylated N-linked glycans (Man8-18GlcNAc2) at Asn1011 and Asn1077) IKTDCLSLPSFENAIPMGEKKDVYKAGEQVTYTCATYYKMDGASNVTCINSRWTGRPTCRDTSCVNPPTVQNAYIVSRQMSKYPSGERVRYQCRSPYEMFGDEEVMCLNGNWTEPPQCKDST	72%	2
900 ± 60 nM	complement factor H, native glycosylated, full-length, purified from human plasma (natural protein, UniProt P08603 19-1231, looked up, eight N-linked biantennary complex-type glycans, among them those at Asn1011 (SCR-17) and Asn1077 (SCR-18), human complement factor H, 20 SCR domains, Tyr402 form; For the SPR self-association experiment the immobilised copy was biotinylated (EZ-Link Biotinylation kit) and captured on a streptavidin chip; the copy in solution was not labelled; also called CFH; native CFH) EDCNELPPRRNTEILTGSWSDQTYPEGTQAIYKCRPGYRSLGNVIMVCRKGEWVALNPLRKCQKRPCGHPGDTPFGTFTLTGGNVFEYGVKAVYTCNEGYQLLGEINYRECDTDGWTNDIPICEVVKCLPVTAPENGKIVSSAMEPDREYHFGQAVRFVCNSGYKIEGDEEMHCSDDGFWSKEKPKCVEISCKSPDVINGSPISQKIIYKENERFQYKCNMGYEYSERGDAVCTESGWRPLPSCEEKSCDNPYIPNGDYSPLRIKHRTGDEITYQCRNGFYPATRGNTAKCTSTGWIPAPRCTLKPCDYPDIKHGGLYHENMRRPYFPVAVGKYYSYYCDEHFETPSGSYWDHIHCTQDGWSPAVPCLRKCYFPYLENGYNQNYGRKFVQGKSIDVACHPGYALPKAQTTVTCMENGWSPTPRCIRVKTCSKSSIDIENGFISESQYTYALKEKAKYQCKLGYVTADGETSGSITCGKDGWSAQPTCIKSCDIPVFMNARTKNDFTWFKLNDTLDYECHDGYESNTGSTTGSIVCGYNGWSDLPICYERECELPKIDVHLVPDRKKDQYKVGEVLKFSCKPGFTIVGPNSVQCYHFGLSPDLPICKEQVQSCGPPPELLNGNVKEKTKEEYGHSEVVEYYCNPRFLMKGPNKIQCVDGEWTTLPVCIVEESTCGDIPELEHGWAQLSSPPYYYGDSVEFNCSESFTMIGHRSITCIHGVWTQLPQCVAIDKLKKCKSSNLIILEEHLKNKKEFDHNSNIRYRCRGKEGWIHTVCINGRWDPEVNCSMAQIQLCPPPPQIPNSHNMTTTLNYRDGEKVSVLCQENYLIQEGEEITCKDGRWQSIPLCVEKIPCSQPPQIEHGTINSSRSSQESYAHGTKLSYTCEGGFRISEENETTCYMGKWSSPPQCEGLPCKSPPEISHGVVAHMSDSYQYGEEVTYKCFEGFGIDGPAIAKCLGEKWSHPPSCIKTDCLSLPSFENAIPMGEKKDVYKAGEQVTYTCATYYKMDGASNVTCINSRWTGRPTCRDTSCVNPPTVQNAYIVSRQMSKYPSGERVRYQCRSPYEMFGDEEVMCLNGNWTEPPQCKDSTGKCGPPPPIDNGDITSFPLSVYAPASSVEYQCQNLYQLEGNKRITCRNGQWSEPPKCLHPCVISREIMENYNIALRWTAKQKLYSRTGESVEFVCKRGYRLSSRSHTLRTTCWDGKLEYPTCAKR		
3780 ± 450 nM	fully deglycosylated complement factor H (200 h PNGase F) (natural protein, human, UniProt P08603 19-1231, looked up, N-linked glycans removed with PNGase F: eight, seven, six or five removed, leaving none, one, two or three glycans, Mixture of forms with none to three glycans left; also called fully deglycosylated CFH; CFH-De; source: purified from human plasma, then PNGase F for 200 h at 37 °C, gel filtration) EDCNELPPRRNTEILTGSWSDQTYPEGTQAIYKCRPGYRSLGNVIMVCRKGEWVALNPLRKCQKRPCGHPGDTPFGTFTLTGGNVFEYGVKAVYTCNEGYQLLGEINYRECDTDGWTNDIPICEVVKCLPVTAPENGKIVSSAMEPDREYHFGQAVRFVCNSGYKIEGDEEMHCSDDGFWSKEKPKCVEISCKSPDVINGSPISQKIIYKENERFQYKCNMGYEYSERGDAVCTESGWRPLPSCEEKSCDNPYIPNGDYSPLRIKHRTGDEITYQCRNGFYPATRGNTAKCTSTGWIPAPRCTLKPCDYPDIKHGGLYHENMRRPYFPVAVGKYYSYYCDEHFETPSGSYWDHIHCTQDGWSPAVPCLRKCYFPYLENGYNQNYGRKFVQGKSIDVACHPGYALPKAQTTVTCMENGWSPTPRCIRVKTCSKSSIDIENGFISESQYTYALKEKAKYQCKLGYVTADGETSGSITCGKDGWSAQPTCIKSCDIPVFMNARTKNDFTWFKLNDTLDYECHDGYESNTGSTTGSIVCGYNGWSDLPICYERECELPKIDVHLVPDRKKDQYKVGEVLKFSCKPGFTIVGPNSVQCYHFGLSPDLPICKEQVQSCGPPPELLNGNVKEKTKEEYGHSEVVEYYCNPRFLMKGPNKIQCVDGEWTTLPVCIVEESTCGDIPELEHGWAQLSSPPYYYGDSVEFNCSESFTMIGHRSITCIHGVWTQLPQCVAIDKLKKCKSSNLIILEEHLKNKKEFDHNSNIRYRCRGKEGWIHTVCINGRWDPEVNCSMAQIQLCPPPPQIPNSHNMTTTLNYRDGEKVSVLCQENYLIQEGEEITCKDGRWQSIPLCVEKIPCSQPPQIEHGTINSSRSSQESYAHGTKLSYTCEGGFRISEENETTCYMGKWSSPPQCEGLPCKSPPEISHGVVAHMSDSYQYGEEVTYKCFEGFGIDGPAIAKCLGEKWSHPPSCIKTDCLSLPSFENAIPMGEKKDVYKAGEQVTYTCATYYKMDGASNVTCINSRWTGRPTCRDTSCVNPPTVQNAYIVSRQMSKYPSGERVRYQCRSPYEMFGDEEVMCLNGNWTEPPQCKDSTGKCGPPPPIDNGDITSFPLSVYAPASSVEYQCQNLYQLEGNKRITCRNGQWSEPPKCLHPCVISREIMENYNIALRWTAKQKLYSRTGESVEFVCKRGYRLSSRSHTLRTTCWDGKLEYPTCAKR		
2530 ± 420 nM	partially deglycosylated complement factor H (100 h PNGase F) (natural protein, human, UniProt P08603 19-1231, looked up, N-linked glycans partly removed with PNGase F: forms with three to six glycan chains were present, Mixture of glycoforms; also called partially deglycosylated CFH; CFH partially glycosylated; source: purified from human plasma, then PNGase F for 100 h at 37 °C, gel filtration) EDCNELPPRRNTEILTGSWSDQTYPEGTQAIYKCRPGYRSLGNVIMVCRKGEWVALNPLRKCQKRPCGHPGDTPFGTFTLTGGNVFEYGVKAVYTCNEGYQLLGEINYRECDTDGWTNDIPICEVVKCLPVTAPENGKIVSSAMEPDREYHFGQAVRFVCNSGYKIEGDEEMHCSDDGFWSKEKPKCVEISCKSPDVINGSPISQKIIYKENERFQYKCNMGYEYSERGDAVCTESGWRPLPSCEEKSCDNPYIPNGDYSPLRIKHRTGDEITYQCRNGFYPATRGNTAKCTSTGWIPAPRCTLKPCDYPDIKHGGLYHENMRRPYFPVAVGKYYSYYCDEHFETPSGSYWDHIHCTQDGWSPAVPCLRKCYFPYLENGYNQNYGRKFVQGKSIDVACHPGYALPKAQTTVTCMENGWSPTPRCIRVKTCSKSSIDIENGFISESQYTYALKEKAKYQCKLGYVTADGETSGSITCGKDGWSAQPTCIKSCDIPVFMNARTKNDFTWFKLNDTLDYECHDGYESNTGSTTGSIVCGYNGWSDLPICYERECELPKIDVHLVPDRKKDQYKVGEVLKFSCKPGFTIVGPNSVQCYHFGLSPDLPICKEQVQSCGPPPELLNGNVKEKTKEEYGHSEVVEYYCNPRFLMKGPNKIQCVDGEWTTLPVCIVEESTCGDIPELEHGWAQLSSPPYYYGDSVEFNCSESFTMIGHRSITCIHGVWTQLPQCVAIDKLKKCKSSNLIILEEHLKNKKEFDHNSNIRYRCRGKEGWIHTVCINGRWDPEVNCSMAQIQLCPPPPQIPNSHNMTTTLNYRDGEKVSVLCQENYLIQEGEEITCKDGRWQSIPLCVEKIPCSQPPQIEHGTINSSRSSQESYAHGTKLSYTCEGGFRISEENETTCYMGKWSSPPQCEGLPCKSPPEISHGVVAHMSDSYQYGEEVTYKCFEGFGIDGPAIAKCLGEKWSHPPSCIKTDCLSLPSFENAIPMGEKKDVYKAGEQVTYTCATYYKMDGASNVTCINSRWTGRPTCRDTSCVNPPTVQNAYIVSRQMSKYPSGERVRYQCRSPYEMFGDEEVMCLNGNWTEPPQCKDSTGKCGPPPPIDNGDITSFPLSVYAPASSVEYQCQNLYQLEGNKRITCRNGQWSEPPKCLHPCVISREIMENYNIALRWTAKQKLYSRTGESVEFVCKRGYRLSSRSHTLRTTCWDGKLEYPTCAKR		
	SCR-17H, glycosylated single-domain fragment of complement factor H expressed in Pichia pastoris (domain or fragment, reading uncertain; also: N-linked hyperglycosylation (Pichia) at Asn1011, recombinant protein) IKTDCLSLPSFENAIPMGEKKDVYKAGEQVTYTCATYYKMDGASN(glycan)VTCINSRWTGRPTCRDTS	67%	2
	SCR-16/20, glycosylated five-domain C-terminal fragment of complement factor H expressed in Pichia pastoris (domain or fragment, Pichia hyperglycosylated N-linked glycans at Asn1011 and Asn1077) EGLPCKSPPEISHGVVAHMSDSYQYGEEVTYKCFEGFGIDGPAIAKCLGEKWSHPPSCIKTDCLSLPSFENAIPMGEKKDVYKAGEQVTYTCATYYKMDGASNVTCINSRWTGRPTCRDTSCVNPPTVQNAYIVSRQMSKYPSGERVRYQCRSPYEMFGDEEVMCLNGNWTEPPQCKDSTGKCGPPPPIDNGDITSFPLSVYAPASSVEYQCQNLYQLEGNKRITCRNGQWSEPPKCLHPCVISREIMENYNIALRWTAKQKLYSRTGESVEFVCKRGYRLSSRSHTLRTTCWDGKLEYPTCAKR	8%	2
	SCR-16/20 deglycosylated with PNGase F (domain or fragment, N-linked glycans at Asn1011 and Asn1077 removed with PNGase F) EGLPCKSPPEISHGVVAHMSDSYQYGEEVTYKCFEGFGIDGPAIAKCLGEKWSHPPSCIKTDCLSLPSFENAIPMGEKKDVYKAGEQVTYTCATYYKMDGASNVTCINSRWTGRPTCRDTSCVNPPTVQNAYIVSRQMSKYPSGERVRYQCRSPYEMFGDEEVMCLNGNWTEPPQCKDSTGKCGPPPPIDNGDITSFPLSVYAPASSVEYQCQNLYQLEGNKRITCRNGQWSEPPKCLHPCVISREIMENYNIALRWTAKQKLYSRTGESVEFVCKRGYRLSSRSHTLRTTCWDGKLEYPTCAKR	2%	2
	SCR-16/18H, glycosylated three-domain fragment of complement factor H expressed in Pichia pastoris (domain or fragment, Pichia hyperglycosylated N-linked glycans at Asn1011 and Asn1077) EGLPCKSPPEISHGVVAHMSDSYQYGEEVTYKCFEGFGIDGPAIAKCLGEKWSHPPSCIKTDCLSLPSFENAIPMGEKKDVYKAGEQVTYTCATYYKMDGASNVTCINSRWTGRPTCRDTSCVNPPTVQNAYIVSRQMSKYPSGERVRYQCRSPYEMFGDEEVMCLNGNWTEPPQCKDST	78%	2
	SCR-16/18H deglycosylated with PNGase F (domain or fragment, N-linked glycans at Asn1011 and Asn1077 treated with PNGase F (the paper suggests that removal may have been impeded)) EGLPCKSPPEISHGVVAHMSDSYQYGEEVTYKCFEGFGIDGPAIAKCLGEKWSHPPSCIKTDCLSLPSFENAIPMGEKKDVYKAGEQVTYTCATYYKMDGASNVTCINSRWTGRPTCRDTSCVNPPTVQNAYIVSRQMSKYPSGERVRYQCRSPYEMFGDEEVMCLNGNWTEPPQCKDST	63%	2
